For the experiment, the target named is TrkB receptor expressed in mouse oocytes (mouse) (UniProt P15209). The experiment can be described thus: cell-based or functional assay.

The text below walks through data of patent US20110052599A1.

Consider “recombinant human BDNF (Pepro-Tech, Rocky Hill, N.J.) (from UniProt P23560 19-247) (ligand)”, for which the proportion of MII oocytes that developed into blastocyst-stage embryos is 5 fold; the proportion of MII oocytes that developed into two-cell stage embryos amounted to 2 fold; the proportion of oocytes showing first polar body extrusion (MII-stage oocytes), 3 ng/ml BDNF with 5% FBS is > 2 fold.
